# Results taken from the supplement of paper PMC7125110.
# ± gives the standard error. Variants at the floor of the assay were thinned out.
# B1: glmS ribozyme (parent)
# chain: AUAAAAGCGCCAGAACUACAGAAAUGUAGUUGACGAGGAGGAGGUUUAUCGAAUUUUCGGCGGAUGCCUCCAAA
# Variants of: B1
# Assay: self-cleavage kobs at 2500 uM GlcN6P; higher = faster cleavage; RNA array
# Conditions: with glucosamine-6-phosphate
# Summary of the method: (§1)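 Using a hybridised Cy3 probe at 37 °C, barcoded ribozyme variants transcribed in situ by E. coli RNA polymerase on sequenced MiSeq chips were monitored across tiles imaged over ~14 h. The flow contained glucosamine-6-phosphate from 40 μM to 10 mM in HEPES/KCl/Mg(OAc)2 buffer. Signals were normalised to baseline and to non-cleaving reference variants before per-tile medians were fit to one- or two-exponential decays to yield kobs. Weighted Michaelis–Menten fits across concentrations gave kcat and KM.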
row,Variant,self-cleavage kobs at 2500 uM GlcN6P
1,A6G G29C U31C,< 1e-05 s⁻¹
2,A14C A42G G43U C70A,< 1e-05 s⁻¹
3,U30G C34A C68U,< 1e-05 s⁻¹
4,C10G G43U U46C,< 1e-05 s⁻¹
5,A6G C50G C61U,0.000108 ± 3.5e-05 s⁻¹
6,A15G U46A A48U,5.82e-05 ± 2.3e-05 s⁻¹
7,A14G C16A U45C G66C,0.000167 ± 3.4e-05 s⁻¹
8,A15U U45A U57C,4.29e-05 ± 1.9e-05 s⁻¹
9,A15U G37A G66C,7.17e-05 ± 1.8e-05 s⁻¹
10,G32A G35A C61A G63A C70U,< 1e-05 s⁻¹
11,G29U A39U C67G,0.00033 ± 9.8e-05 s⁻¹
12,G29U U31C U54C,0.000161 ± 3.5e-05 s⁻¹
13,G9U C16G G29C A52U G59U,< 1e-05 s⁻¹
14,C11G C61A C68A,8.83e-05 ± 2.3e-05 s⁻¹
15,G13U A39G U47G C71A,5.73e-05 ± 1.7e-05 s⁻¹
16,A52U U55C A64G,4.16e-05 ± 1.5e-05 s⁻¹
17,G32U U46C C68A C71U,< 1e-05 s⁻¹
18,C16A C34A U65A,< 1e-05 s⁻¹
19,A14U C50U G63C,< 1e-05 s⁻¹
20,G13U C67U C70U,6.19e-05 ± 2.3e-05 s⁻¹
21,G40A G43C G60C C67U,< 1e-05 s⁻¹
22,G7U G59A C61U,< 1e-05 s⁻¹
23,A12G G32A G60U,< 1e-05 s⁻¹

row,Variant,self-cleavage kobs at 2500 uM GlcN6P
1,G9C A15U G66C C70G,< 1e-05 s⁻¹
2,A15U G44A A48C U56A C70A,< 1e-05 s⁻¹
3,C11A A52G C70U,8.24e-05 ± 3.2e-05 s⁻¹
4,A6C A33U G37C A42U A48C U56A G59U C68G,< 1e-05 s⁻¹
5,A6U G7C C8G,< 1e-05 s⁻¹
6,G43U G63U C68G,< 1e-05 s⁻¹
7,A6U G37A U49C U54A,< 1e-05 s⁻¹
8,A15U G35U C67G,< 1e-05 s⁻¹
9,U31C G40U U46G,3.61e-05 ± 1.5e-05 s⁻¹
10,G7A C34U A36C,< 1e-05 s⁻¹
11,A48C G51A C70G,< 1e-05 s⁻¹
12,A6U C16G G29U G43C U47G U54C,< 1e-05 s⁻¹
13,A36C G44U C67U,< 1e-05 s⁻¹
14,G32U A42G C58G C70U,0.000198 ± 8.4e-05 s⁻¹
15,A36U U54G U57A,< 1e-05 s⁻¹
16,G9U U31A C67A C70U,< 1e-05 s⁻¹
17,C8U C16U G37C A39G U54C,< 1e-05 s⁻¹
18,C34U G40C U56A G63A,< 1e-05 s⁻¹
19,G21U U57C,9.36e-05 ± 1.4e-05 s⁻¹
20,A12C A15G G66U C67A,0.000636 ± 0.00013 s⁻¹
21,A15C G51A C70G,6.1e-05 ± 2.9e-05 s⁻¹
22,G32A C58U C68G,0.000103 ± 3.5e-05 s⁻¹
23,U47C U54A C70U,0.00241 ± 0.00052 s⁻¹

row,Variant,self-cleavage kobs at 2500 uM GlcN6P
1,A36U G51U G63U,< 1e-05 s⁻¹
2,G40A U54G U69A,< 1e-05 s⁻¹
3,C50A C67A C70U,0.000109 ± 3.7e-05 s⁻¹
4,G13C G29C U55A,8.97e-05 ± 2.5e-05 s⁻¹
5,A6U C50U C68G C71A,8.39e-05 ± 3e-05 s⁻¹
6,A12C A36G C71U,< 1e-05 s⁻¹
7,G7U G43A U47A U57C A64U,< 1e-05 s⁻¹
8,G13A A33C A48C,< 1e-05 s⁻¹
9,A6C C10U G37U C50G U54C C70A,0.000151 ± 3.4e-05 s⁻¹
10,A6C A12G U55C C70A,< 1e-05 s⁻¹
11,U56G G66C C71U,0.000269 ± 5.5e-05 s⁻¹
12,C8G A14G G44C U54A C71U,< 1e-05 s⁻¹
13,G26U C67U,0.000381 ± 0.00017 s⁻¹
14,G29U A42U C68A C71U,< 1e-05 s⁻¹
15,C16G G37U G44U U47A G51C C68A,< 1e-05 s⁻¹
16,G35U G60A C70G,< 1e-05 s⁻¹
17,A15G G32A C58G,8.81e-05 ± 2.9e-05 s⁻¹
18,A36C G51C C71G,< 1e-05 s⁻¹
19,C11A G38C G40U G59A,< 1e-05 s⁻¹
20,A12C G13C A42U U49C,< 1e-05 s⁻¹
21,A12G U31A U45A,0.000216 ± 6.4e-05 s⁻¹
22,A12G A39C A42U,3.14e-05 ± 1.5e-05 s⁻¹
23,A12U A15G U45C C50G C61A,< 1e-05 s⁻¹

row,Variant,self-cleavage kobs at 2500 uM GlcN6P
1,A15C A39G U47G A53U,0.000235 ± 8.5e-05 s⁻¹
2,A6G G38A G40A G60C,< 1e-05 s⁻¹
3,U55A C61A C68A,0.00152 ± 0.00071 s⁻¹
4,U57G C58A C70U C71G,9.31e-05 ± 2.5e-05 s⁻¹
5,A14C U45G C71A,4.43e-05 ± 1.3e-05 s⁻¹
6,U30A G32C,6.18e-05 ± 2.8e-05 s⁻¹
7,C10A G13U A36U U55C C67U,< 1e-05 s⁻¹
8,G7U A12G U69A,< 1e-05 s⁻¹
9,C8G C58U C61U G63U C68U,< 1e-05 s⁻¹
10,C34A G37U U46G U65G,< 1e-05 s⁻¹
11,G9U C16A A42C U54A A64G C70U,< 1e-05 s⁻¹
12,U47G U57C C68A,8.58e-05 ± 3.6e-05 s⁻¹
13,C50A U69C,6.67e-05 ± 2e-05 s⁻¹
14,A15U G29U U55A,0.00225 ± 0.00062 s⁻¹
15,U31G A33U C68G,< 1e-05 s⁻¹
16,G7U A33C G59U G60U,< 1e-05 s⁻¹
17,A15C G37U A39G,< 1e-05 s⁻¹
18,G9U U54C G63C,< 1e-05 s⁻¹
19,G29C G32U C67A,4.32e-05 ± 2e-05 s⁻¹
20,A14C U45C,0.000604 ± 0.00025 s⁻¹
21,G9U A39U A48U C50A U57C G66A,< 1e-05 s⁻¹
22,A15G U31A A53G,0.01 ± 0.0031 s⁻¹
23,G44U G60U C71A,< 1e-05 s⁻¹

row,Variant,self-cleavage kobs at 2500 uM GlcN6P
1,G41C U47C C61G C67U,< 1e-05 s⁻¹
2,A15G G32A C71G,0.000277 ± 0.0001 s⁻¹
3,C34A G41A U47C,< 1e-05 s⁻¹
4,A39G U55G C71U,0.00336 ± 0.0015 s⁻¹
5,A15C U30A A33C G41U C50U C68A C70G,< 1e-05 s⁻¹
6,A12G G40U U46A C58U,< 1e-05 s⁻¹
7,U57A C67A C71A,0.000181 ± 4.1e-05 s⁻¹
8,C10A G51A G66A C68A C70A,7.81e-05 ± 3.1e-05 s⁻¹
9,G9A G13C A33C G38C C61U G63U G66C,< 1e-05 s⁻¹
10,A15U C16U U45A,0.00158 ± 0.00051 s⁻¹
11,A14U A15U G40U,0.000122 ± 3.7e-05 s⁻¹
12,U45C U55A U65C,4.27e-05 ± 1.2e-05 s⁻¹
13,C8G G9U A14U A15U A64G C70U,< 1e-05 s⁻¹
14,A33G G35A A36C G41A C61G C68G,< 1e-05 s⁻¹
15,A39U A52C C71A,< 1e-05 s⁻¹
16,G7C G13U U31G G37C G59A G60U,< 1e-05 s⁻¹
17,C10U G51C C58G,< 1e-05 s⁻¹
18,A12C U31C U54A C67A,6.33e-05 ± 2e-05 s⁻¹
19,C8G C11A G43A,< 1e-05 s⁻¹
20,G9C C16G G29U,< 1e-05 s⁻¹
21,A12G A33C G37C G40C,< 1e-05 s⁻¹
22,G9A U31C A52U,< 1e-05 s⁻¹
23,G37U G44U U54A,< 1e-05 s⁻¹

row,Variant,self-cleavage kobs at 2500 uM GlcN6P
1,A33G U47A A52C C70A,< 1e-05 s⁻¹
2,C10U A36U G40U,< 1e-05 s⁻¹
3,A6U C58A C67A,< 1e-05 s⁻¹
4,G29A U65A C71A,4.59e-05 ± 1.7e-05 s⁻¹
5,U31C A53C U55C,0.000164 ± 5e-05 s⁻¹
6,U56A G59A,5.17e-05 ± 1.7e-05 s⁻¹
7,G7C G9C C61G G62U,< 1e-05 s⁻¹
8,A15C G32C U55C U57C U65C,< 1e-05 s⁻¹
9,U46A C67G C68U,0.000113 ± 5.1e-05 s⁻¹
10,A15U U46C C70G,8.21e-05 ± 2.2e-05 s⁻¹
11,A14C G29C G44C U49G G59C C71U,< 1e-05 s⁻¹
12,A12G A14C A64G,4.13e-05 ± 1.6e-05 s⁻¹
13,A6U G37C C68U,< 1e-05 s⁻¹
14,C10A G44U U49G U54C G60U C67U,< 1e-05 s⁻¹
15,A12G A36C G62U,< 1e-05 s⁻¹
16,G32C A36U A53C,< 1e-05 s⁻¹
17,A6U A14C G35A,< 1e-05 s⁻¹
18,C10U A15G G44U C50G,< 1e-05 s⁻¹
19,U2C A6C G60A,< 1e-05 s⁻¹
20,C10G G41U G59C G60C,< 1e-05 s⁻¹
21,G9C C10U A15G U69G,< 1e-05 s⁻¹
22,C8U U54G A64U U65G,< 1e-05 s⁻¹
23,A36C G41C A42U U46C,< 1e-05 s⁻¹

row,Variant,self-cleavage kobs at 2500 uM GlcN6P
1,C10A G35A G40C,< 1e-05 s⁻¹
2,G7U G9U U31C U56C,< 1e-05 s⁻¹
3,A12U U54A G60C U65A,< 1e-05 s⁻¹
4,C16U G32A,0.00201 ± 0.00037 s⁻¹
5,C16A A42U A64U,< 1e-05 s⁻¹
6,U30G A33G A42G G43U C70A,< 1e-05 s⁻¹
7,U31G G37A C67U,5.28e-05 ± 1.6e-05 s⁻¹
8,A64C G66A,4.39e-05 ± 1.4e-05 s⁻¹
9,A15G A64C G66A,0.000144 ± 4.8e-05 s⁻¹
10,A12C A15U G43C G51A,< 1e-05 s⁻¹
11,G9U A14G U45A C67A,< 1e-05 s⁻¹
12,U2C C61G,< 1e-05 s⁻¹
13,A12C C16U A36C,< 1e-05 s⁻¹
14,G35U A48U U56G,< 1e-05 s⁻¹
15,G41C U49A U65A,< 1e-05 s⁻¹
16,C8G C10G C70G,< 1e-05 s⁻¹
17,C50U A52C C58U,< 1e-05 s⁻¹
18,G7A G13A C68A,< 1e-05 s⁻¹
19,G29C U31G,< 1e-05 s⁻¹
20,C34G G43C A53U U54A,< 1e-05 s⁻¹
21,C16U U30C G32U G35U U47G,< 1e-05 s⁻¹

# Variants of: B1
# Assay: self-cleavage kobs at 10000 uM GlcN6P; higher = faster cleavage; RNA array
# Conditions: with glucosamine-6-phosphate
# Summary of the method: as §1
row,Variant,self-cleavage kobs at 10000 uM GlcN6P
1,G9U C16G G29C A52U G59U,< 1e-05 s⁻¹
2,C16A C34A U65A,< 1e-05 s⁻¹
3,G40A G43C G60C C67U,< 1e-05 s⁻¹
4,A36C G51C C71G,< 1e-05 s⁻¹
5,A6G G38A G40A G60C,< 1e-05 s⁻¹
6,U30A G32C,0.000203 ± 5.8e-05 s⁻¹
7,G29C G32U C67A,0.00017 ± 2.6e-05 s⁻¹
8,A14C U45C,0.000368 ± 6.5e-05 s⁻¹
9,A15G G32A C71G,0.000201 ± 3.3e-05 s⁻¹
10,A14U A15U G40U,0.000149 ± 2.6e-05 s⁻¹
11,G9A U31C A52U,< 1e-05 s⁻¹
12,U56A G59A,4.86e-05 ± 9.7e-06 s⁻¹
13,A15C G32C U55C U57C U65C,< 1e-05 s⁻¹
14,A15U U46C C70G,3.23e-05 ± 1.5e-05 s⁻¹
15,A6U G37C C68U,< 1e-05 s⁻¹
16,A36C G41C A42U U46C,< 1e-05 s⁻¹
17,U31G G37A C67U,0.000189 ± 3.7e-05 s⁻¹
18,G41C U49A U65A,< 1e-05 s⁻¹
19,C8G C10G C70G,< 1e-05 s⁻¹
